Reference: publication PMC10350818 (The EMBO Journal, 2023)

Columns and labels:
Assay in all cases: pull-down; GST pull-down with purified GST or GST-p37 as bait, p97 variants and SPI or SPI variant, in the presence of ATP; Western blot
Conditions in all cases: both partners purified
His-tagged p97 G54K = target: T1, His-tagged p97 G54K (human, UniProt P55072 2-806, G54K)
T1 construct: p97 (VCP), human, point mutation in the N-domain groove; source: generated in bacteria, purified

His-tagged p97 Y143A = target: T2, His-tagged p97 Y143A (human, UniProt P55072 2-806, Y143A)
T2 construct: p97 (VCP), human, point mutation in the N-domain groove; source: generated in bacteria, purified

[1] = target: T3, His-tagged p97 (from bacteria), wild type (human, UniProt P55072 2-806)
T3 construct: p97 (VCP), human; Wild-type p97 of the GST pull-down assays; also called VCP; source: generated in bacteria, purified

Measured: binding result

T3 sequence (P55072 2-806): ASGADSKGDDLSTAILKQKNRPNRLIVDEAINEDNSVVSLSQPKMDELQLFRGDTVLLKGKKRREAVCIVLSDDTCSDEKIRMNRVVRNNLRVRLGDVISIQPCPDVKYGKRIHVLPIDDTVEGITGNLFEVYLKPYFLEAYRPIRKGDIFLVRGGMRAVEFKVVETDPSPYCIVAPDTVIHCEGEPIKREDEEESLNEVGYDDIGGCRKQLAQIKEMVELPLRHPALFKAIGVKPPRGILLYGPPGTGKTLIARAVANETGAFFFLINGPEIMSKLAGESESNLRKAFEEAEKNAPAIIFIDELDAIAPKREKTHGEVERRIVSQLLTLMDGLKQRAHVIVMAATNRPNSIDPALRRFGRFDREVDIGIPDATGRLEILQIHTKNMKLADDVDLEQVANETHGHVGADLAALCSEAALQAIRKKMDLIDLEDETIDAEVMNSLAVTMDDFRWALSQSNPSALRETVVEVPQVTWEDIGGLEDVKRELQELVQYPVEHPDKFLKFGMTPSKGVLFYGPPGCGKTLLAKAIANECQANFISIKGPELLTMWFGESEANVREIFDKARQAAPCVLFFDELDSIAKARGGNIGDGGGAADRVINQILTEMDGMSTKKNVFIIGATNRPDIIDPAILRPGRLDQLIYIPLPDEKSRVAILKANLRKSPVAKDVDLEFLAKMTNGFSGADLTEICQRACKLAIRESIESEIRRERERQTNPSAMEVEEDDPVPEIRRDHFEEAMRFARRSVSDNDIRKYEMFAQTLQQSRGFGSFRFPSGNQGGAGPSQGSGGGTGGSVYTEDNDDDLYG
T1 sequence (P55072 2-806 G54K): as the sequence (P55072 2-806) above, with G53K counted along it
T2 sequence (P55072 2-806 Y143A): as the sequence (P55072 2-806) above, with Y142A counted along it

B1: GST-p37 (natural protein, human, UniProt Q14CS0 1-331, looked up)
chain: MAEGGGPEPGEQERRSSGPRPPSARDLQLALAELYEDEVKCKSSKSNRPKATVFKSPRTPPQRFYSSEHEYSGLNIVRPSTGKIVNELFKEAREHGAVPLNEATRASGDDKSKSFTGGGYRLGSSFCKRSEYIYGENQLQDVQILLKLWSNGFSLDDGELRPYNEPTNAQFLESVKRGEIPLELQRLVHGGQVNLDMEDHQDQEYIKPRLRFKAFSGEGQKLGSLTPEIVSTPSSPEEEDKSILNAVVLIDDSVPTTKIQIRLADGSRLIQRFNSTHRILDVRNFIVQSRPEFAALDFILVTSFPNKELTDESLTLLEADILNTVLLQQLK
notes: Bait of the GST pull-down assays; source: generated in bacteria, purified
binds: all assays above
